Test results reported in patent publication US20170362276A1 (published 2017).
Positions of bridges follow the written chain, without caps; N, C: chain ends. Non-standard residues stand in square brackets, D forms with d. No end group written: not given here.

How the values were obtained:
[1] = biological target: human kappa opioid receptor (human) (UniProt P41145); assay: cell-based or functional assay
[2] = biological target: human mu opioid receptor (human) (UniProt P35372); assay: cell-based or functional assay
[3] = biological target: T1, human delta opioid receptor (human, UniProt P41143 1-372); assay: cell-based or functional assay
[4] = biological target: T1, human delta opioid receptor; assay: ratio of Ki at delta to Ki at mu, radioligand competition
[5] = biological target: human kappa opioid receptor (human) (UniProt P41145); assay: ratio of Ki at kappa to Ki at mu, radioligand competition
[6] = biological target: human mu opioid receptor (human) (UniProt P35372); assay: radioligand competition, 3H-DAMGO, membranes of CHO cells expressing cloned human mu receptor
[7] = biological target: T1, human delta opioid receptor; assay: radioligand competition, 3H-DPDPE, membranes of CHO cells expressing cloned human delta receptor
[8] = biological target: human kappa opioid receptor (human) (UniProt P41145); assay: radioligand competition, 3H-U69593, membranes of CHO cells expressing cloned human kappa receptor

ck1, Tyr-c[D-Lys-Trp-Phe] (peptide) showed an Agonist EC50 (35S-GTPγS assay) [1] of 470 nM, a Selectivity kappa/mu (agonist EC50) [1] of 2240 and an Agonist EC50 (35S-GTPγS assay) [2] of 0.21 nM. For the same molecule, the efficacy of mu activation (35S-GTPγS) [2] was over 90%, the Agonist EC50 (35S-GTPγS assay) [3] was 138 nM and the Selectivity delta/mu (agonist EC50) [3] was 658. It also gave a Selectivity Delta/Mu [4] of 90, a Selectivity Kappa/Mu [5] of 111 and a Ki [6] of 0.32 nM. It also gave a Ki [7] of 28 nM and a Ki [8] of 35 nM.

Molecule ck2, Tyr-c[D-Lys-Phe-Phe] (peptide) has an Agonist EC50 (35S-GTPγS assay) [1] of 206 nM, a Selectivity kappa/mu (agonist EC50) [1] of 1370 and an Agonist EC50 (35S-GTPγS assay) [2] of 0.15 nM. It also gave an efficacy of mu activation (35S-GTPγS) [2] of over 90%, an Agonist EC50 (35S-GTPγS assay) [3] of 7 nM and a Selectivity delta/mu (agonist EC50) [3] of 44. The Selectivity Delta/Mu [4] was 9, the Selectivity Kappa/Mu [5] was 33 and the Ki [6] was 0.36 nM. The Ki [7] was 3 nM and the Ki [8] was 12 nM.

B1: Compound 1, Tyr-c[D-Lys-Trp-Phe-Glu]-NH2 (peptide)
peptide: Y[dK]WFE-NH2
modifications: lactam 2-5; N-terminus assumed
SMILES: NC(=O)[C@@H]1CCC(=O)NCCCC[C@@H](NC(=O)[C@@H](N)Cc2ccc(O)cc2)C(=O)N[C@@H](Cc2c[nH]c3ccccc23)C(=O)N[C@@H](Cc2ccccc2)C(=O)N1
With B1 the “Delta Antagonist IC 50” value [3] was 105 nM.

B2: Compound 5, Tyr-c[D-Lys-Trp-Phe-Asp]-NH2 (peptide)
peptide: Y[dK]WFD-NH2
modifications: lactam 2-5; N-terminus assumed
SMILES: NC(=O)[C@@H]1CC(=O)NCCCC[C@@H](NC(=O)[C@@H](N)Cc2ccc(O)cc2)C(=O)N[C@@H](Cc2c[nH]c3ccccc23)C(=O)N[C@@H](Cc2ccccc2)C(=O)N1
For B2, the “Delta Antagonist IC 50” value [3] was 557 nM.

B3: Compound 2, Tyr-c[D-Glu-Phe-Phe-Lys]-NH2 (peptide)
peptide: Y[dE]FFK-NH2
modifications: lactam 2-5; N-terminus assumed
SMILES: NC(=O)[C@@H]1CCCCNC(=O)CC[C@@H](NC(=O)[C@@H](N)Cc2ccc(O)cc2)C(=O)N[C@@H](Cc2ccccc2)C(=O)N[C@@H](Cc2ccccc2)C(=O)N1
In the case of B3, the “Delta Antagonist IC 50” value [3] is reported as 2750 nM.

B4: endomorphin-2 (Tyr-Pro-Phe-Phe-NH2) (peptide)
peptide: YPFF-NH2
In the case of B4, the “Delta Antagonist IC 50” value [3] is reported as 30000 nM.
